Measurements published in patent publication US6153580.

Molecular target: β-casein

## Hin47 Ser-197→alanine analog (enzyme)
  protease activity on the substrate β-casein: < 10%
